According to the Immune Epitope Database (IEDB):

Columns and labels:
Assay in all cases: IEDB peptide-MHC binding, purified MHC/competitive/radioactivity; filed as Kd, often an IC50 or EC50 that approximates it; ≥ and ≤ were set here for values at or beyond the usual limits of such assays
[1] = molecular target: HLA-A*02:02
[2] = molecular target: HLA-A*02:03
[3] = molecular target: HLA-A*02:06
[4] = molecular target: HLA-A*03:01
[5] = molecular target: HLA-A*11:01
[6] = molecular target: HLA-A*31:01
[7] = molecular target: HLA-A*33:01
[8] = molecular target: HLA-A*68:01
[9] = source organism: Vaccinia virus WR
[10] = source organism: Dengue virus 4 Philippines/H241/1956
[11] = source organism: Lassa virus Josiah
[12] = source organism: SARS coronavirus Tor2
[13] = source organism: Dengue virus 2 Jamaica/1409/1983

Sequence | Kd [1, 9] [nM] | Kd [2, 9] [nM] | Kd [3, 9] [nM] | other results
EVMPEKRNVV | ≥ 20200 | 2620 | 12100 | –
GMAMTTVLSI | – | – | – | Kd [2, 10]: 6.52 nM
IMSMMNITRL | 61.8 | 106 | 585 | –
SLVYGIRCV | 2940 | 3.83 | 168 | –
KTPVIVVPVI | 9090 | 6200 | 1890 | –
RTTWAFCEV | – | – | – | Kd [3, 10]: 23.1 nM
LMSDNPKAST | 8880 | 938 | ≥ 47700 | –
RVNHAKYMVT | ≥ 33600 | 1050 | 9330 | –
KLKVDSDSGL | 74.6 | 55.8 | ≥ 10000 | –
RLATAIAGA | – | – | – | Kd ([2]; source organism: Dengue virus 3 Martinique/1243/1999): 11.5 nM
NIVTDLENRL | 261 | 17600 | 1550 | –
FMEEEIKAEM | 1030 | 3070 | 865 | –
LATLNTLIT | 1160 | 1550 | 14200 | –
SIINHKFCNL | – | – | – | Kd [1, 11]: 247 nM; Kd [2, 11]: 562 nM; Kd [3, 11]: 1010 nM
CLKNEGVSGL | 127 | 25.1 | 14100 | –
PTILATLNTL | 374 | 130 | 771 | –
YVKNGTKGKL | 5720 | 7170 | ≥ 28400 | –
SVDEEGCGPL | 14800 | ≥ 38700 | 12700 | –
RQQLEDIFM | 5730 | ≥ 26900 | 944 | –
STTGEWPLI | ≥ 21100 | ≥ 44500 | 1240 | –
NMDKVSAQNI | 8020 | 16800 | ≥ 69800 | –
KLYIALCKVT | 7110 | 625 | 6360 | –
VMYASALVLL | – | – | – | Kd [1, 12]: 0.251 nM; Kd [2, 12]: 4.03 nM; Kd [3, 12]: 41.4 nM
AIAACAMLLV | – | – | – | Kd [1, 12]: 5.9 nM; Kd [2, 12]: 31.6 nM; Kd [3, 12]: 77.8 nM
VIDRLPSET | 7080 | 742 | 3670 | –
SIPISELSRL | 252 | 60.6 | 78.2 | –

Sequence | Kd [1, 9] [nM] | Kd [2, 9] [nM] | Kd [3, 9] [nM] | other results
EIDVSEVKTL | 4950 | 2240 | ≥ 56000 | –
RVNDLNRMPT | 1360 | 1440 | 7720 | –
NITTLLNETA | 218 | 106 | 1130 | –
GIADIRDKYM | 0.693 | 48.2 | 1780 | –
ILYYGANGST | 341 | 39.3 | 1840 | –
LLVAHYAII | – | – | – | Kd [2, 13]: 27.3 nM
LAELLEMKYA | 999 | 1040 | 2450 | –
HLTENNLYI | 114 | 14400 | 1810 | –
KLFTIAMWLL | – | – | – | Kd [1, 12]: 8.53 nM; Kd [2, 12]: 709 nM; Kd [3, 12]: 262 nM
PQDNQLAYV | – | – | – | Kd ([3]; source organism: Dengue virus 1 Brazil/97-11/1997): 166 nM
FMRFFTLGSI | – | – | – | Kd [1, 12]: 24.2 nM; Kd [2, 12]: 0.76 nM; Kd [3, 12]: 195 nM
IMQVFFGYFA | – | – | – | Kd [1, 12]: 590 nM; Kd [2, 12]: 1570 nM; Kd [3, 12]: 51.1 nM
AATKRYPGVM | ≥ 20100 | ≥ 47900 | ≥ 46900 | –
IMSIGFEARI | 703 | 1500 | 1600 | –
KQMYKTPTLK | – | – | – | Kd [4, 12]: 0.00231 µM; Kd [5, 12]: 17.5 nM; Kd [6, 12]: 95.3 nM; Kd [7, 12]: 11.4 µM; Kd [8, 12]: 8220 nM
DMMFINSTCY | – | – | – | Kd [4, 9]: 0.821 µM; Kd [5, 9]: 10800 nM; Kd [6, 9]: 974 nM; Kd [7, 9]: 0.883 µM; Kd [8, 9]: 1910 nM
FQFICNLLLL | – | – | – | Kd [1, 12]: 7.94 nM; Kd [2, 12]: 62 nM; Kd [3, 12]: 0.87 nM
LVITYCLVT | 6980 | 3250 | 8000 | –
VILQNAWKV | – | – | – | Kd [3, 13]: 4.45 nM
WLVIGVAFL | – | – | – | Kd [1, 12]: 2.57 nM; Kd [2, 12]: 0.942 nM; Kd [3, 12]: 180 nM
CYLDTNIKM | – | – | – | Kd [4, 9]: ≥ 38.6 µM; Kd [5, 9]: ≥ 77900 nM; Kd [6, 9]: 285 nM; Kd [7, 9]: 10.9 µM; Kd [8, 9]: ≥ 25800 nM
SIPISELSR | – | – | – | Kd [4, 9]: ≥ 24.6 µM; Kd [5, 9]: 125 nM; Kd [6, 9]: 3720 nM; Kd [7, 9]: 9.74 µM; Kd [8, 9]: 11.2 nM
QLMYDIINSV | 1.87 | 0.139 | 5.61 | –
FLELKRGIY | – | – | – | Kd [4, 9]: ≥ 78 µM; Kd [5, 9]: 10700 nM; Kd [6, 9]: 2200 nM; Kd [7, 9]: 4.54 µM; Kd [8, 9]: 1880 nM
IAVASGLLWV | – | – | – | Kd [3, 10]: 10.6 nM
ISIISIRPR | – | – | – | Kd [4, 9]: ≥ 24.1 µM; Kd [5, 9]: 263 nM; Kd [6, 9]: 3.69 nM; Kd [7, 9]: 0.701 µM; Kd [8, 9]: 43.4 nM
